Series [1] concerns the target K63-tetraubiquitin chains, P0CG48.
The target in series [2] is K48-tetraubiquitin chains, P0CG48.
In series [3] the target is purified recombinant linear UB dimers.
The target of series [4] is purified recombinant linear UB trimers.
Series [5] deals with purified recombinant linear UB tetramers.
The next series addresses T1, HA3-RUB-GST, Q9SHE7.
T1 chain: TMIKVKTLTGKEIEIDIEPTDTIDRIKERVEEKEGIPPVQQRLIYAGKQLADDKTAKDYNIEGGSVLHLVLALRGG

The target of series [6] is HA3-UBQ-GST [GST: P08515].
Chain of HA3-UBQ-GST [GST: P08515] (P08515 whole entry, looked up): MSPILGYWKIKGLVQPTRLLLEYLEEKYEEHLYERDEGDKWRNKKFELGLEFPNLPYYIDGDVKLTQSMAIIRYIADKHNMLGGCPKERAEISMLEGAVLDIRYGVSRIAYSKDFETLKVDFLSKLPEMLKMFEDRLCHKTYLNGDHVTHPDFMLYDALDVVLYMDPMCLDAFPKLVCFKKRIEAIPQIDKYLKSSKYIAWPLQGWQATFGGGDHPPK

Chain of K48-tetraubiquitin chains, P0CG48 (P0CG48 whole entry, looked up): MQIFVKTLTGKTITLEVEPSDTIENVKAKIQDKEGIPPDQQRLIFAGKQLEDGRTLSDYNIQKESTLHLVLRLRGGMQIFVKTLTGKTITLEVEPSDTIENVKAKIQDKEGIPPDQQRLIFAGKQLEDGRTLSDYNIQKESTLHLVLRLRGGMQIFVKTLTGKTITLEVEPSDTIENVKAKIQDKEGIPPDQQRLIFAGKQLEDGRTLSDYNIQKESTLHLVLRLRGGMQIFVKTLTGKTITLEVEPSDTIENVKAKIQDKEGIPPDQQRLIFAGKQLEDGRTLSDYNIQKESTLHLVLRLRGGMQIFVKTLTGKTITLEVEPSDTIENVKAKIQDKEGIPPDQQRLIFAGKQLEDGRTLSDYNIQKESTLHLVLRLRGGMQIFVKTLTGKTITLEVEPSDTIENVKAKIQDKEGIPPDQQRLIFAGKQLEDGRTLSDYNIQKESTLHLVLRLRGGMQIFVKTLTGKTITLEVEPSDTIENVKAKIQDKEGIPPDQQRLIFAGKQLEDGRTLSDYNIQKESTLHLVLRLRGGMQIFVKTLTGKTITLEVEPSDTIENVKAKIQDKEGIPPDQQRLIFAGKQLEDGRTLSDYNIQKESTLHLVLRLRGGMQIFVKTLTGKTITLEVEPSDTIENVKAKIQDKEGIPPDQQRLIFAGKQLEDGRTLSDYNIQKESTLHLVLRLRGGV
Chain of K63-tetraubiquitin chains, P0CG48 (P0CG48 whole entry, looked up): as above

B1: OTU7a-C48S (protein)
chain: MAKTKQQKSKPKKQPHQKQGKDCDLSQFRAQLDALGLKIIQVTADGNSFFRAIADQLEGNEDEHNKYRNMIVLYIVKNREMFEPFIEDDVPFEDYCKTMDDDGTWAGNMELQAASLVTRSNICIHRNMSPRWYIRNFEDTRTRMIHLSYHDGEHYNSVRSKEDACGGPARPVVIEADAKVSAASKQAKATESKSKNKADKCHVNAGAIKVVMSGSCCDNTEKAEQVLLQVNGDVDAAIEFLIADQGMESLTENDTETASASDTINPKHASDSPMENTEQAREELIEEESASGNNSETVQAKCTTQTDDKKIPRNKTCPCGSKKKYKSCCGTATGRSSVKLLVSQTMESKKGRKNLRRGTSNEVEANAPDVGALCI
Regarding B1, the cleavage activity entry in series [1] and in series [2] was “completely abolished” throughout.

B2: OTU9-NΔ 1-100 (protein)
chain: GQENQGEAIDITQESDILHNHNGNMEDKNVARIRFEGGQSSPSRDDDSVCSVEIEEESWSEVGKRLNQMIPIAHVPKINGELPSEDEQISDHERLFQRLQLYGLVENKIEGDGNCQFRSLSDQLYRSPEHHNFVREQVVNQLAYNREIYEGYVPMAYNDYLKAMKRNGEWGDHVTLQAAADLFGVRMFVITSFKDTCYIEILPHFQKSNRLICLSFWAEVHYNSIYPEGELPIPEGKKKKKYWVF
With B2, the cleavage entry in series [1] and in series [2] was “comparable to that catalyzed by the corresponding wild-type proteins” each time.

B3: OTU1-C92S (protein)
chain: MQNQIDMVKDEAEVAASISAIKGEEWGNCSSVEDQPSFQEEEAAKVPYVGDKEPLSSLAAEYQSGSPILLEKIKILDSQYIGIRRTRGDGNSFFRSFMFSYLEHILESQDRAEVDRIKVNVEKCRKTLQNLGYTDFTFEDFFALFLEQLDDILQGTEESISYDELVNRSRDQSVSDYIVMFFRFVTAGDIRTRADFFEPFITGLSNATVDQFCKSSVEPMGEESDHIHITALSDALGVAIRVVYLDRSSCDSGGVTVNHHDFVPVGITNEKDEEASAPFITLLYRPGHYDILYPKPSCKVSDNVGK
Consider B3, for which the cleavage activity entry in series [1] and in series [2] was “completely abolished” throughout. Also, the “linear UB polymer cleavage activity” value in series [3], in series [4] and in series [5] was “generally abolished” each time.

B4: OTU1-D89E (protein)
chain: MQNQIDMVKDEAEVAASISAIKGEEWGNCSSVEDQPSFQEEEAAKVPYVGDKEPLSSLAAEYQSGSPILLEKIKILDSQYIGIRRTRGEGNCFFRSFMFSYLEHILESQDRAEVDRIKVNVEKCRKTLQNLGYTDFTFEDFFALFLEQLDDILQGTEESISYDELVNRSRDQSVSDYIVMFFRFVTAGDIRTRADFFEPFITGLSNATVDQFCKSSVEPMGEESDHIHITALSDALGVAIRVVYLDRSSCDSGGVTVNHHDFVPVGITNEKDEEASAPFITLLYRPGHYDILYPKPSCKVSDNVGK
Regarding B4, the cleavage activity entry in series [1] and in series [2] was “completely abolished” in each case. The “linear UB polymer cleavage activity” value in series [3], in series [4] and in series [5] was “to a similar extent as the wild-type protein” each time.

B5: OTU1-H288R (protein)
chain: MQNQIDMVKDEAEVAASISAIKGEEWGNCSSVEDQPSFQEEEAAKVPYVGDKEPLSSLAAEYQSGSPILLEKIKILDSQYIGIRRTRGDGNCFFRSFMFSYLEHILESQDRAEVDRIKVNVEKCRKTLQNLGYTDFTFEDFFALFLEQLDDILQGTEESISYDELVNRSRDQSVSDYIVMFFRFVTAGDIRTRADFFEPFITGLSNATVDQFCKSSVEPMGEESDHIHITALSDALGVAIRVVYLDRSSCDSGGVTVNHHDFVPVGITNEKDEEASAPFITLLYRPGRYDILYPKPSCKVSDNVGK
Take B5: the cleavage activity result in series [1] and in series [2] was “completely abolished” in each case. The “linear UB polymer cleavage activity” value in series [3], in series [4] and in series [5] was “generally abolished” throughout.

B6: OTU10-NΔ1-173 (protein)
chain: RLNQMVPIPYIPKINGEIPPEEEAVSDHERLRNRLEMFDFTEVKVPGDGNCQFRALADQLYKTADRHKHVRRQIVKQLKSRPDSYQGYVPMDFSDYLRKMSRSGEWGDHVTLQAAADAYRVKIVVLTSFKDTCYIEILPTSQESKGVIFLSFWAEVHYNAIYLNRDTSETELQRKRKWWRFGN
Regarding B6, the cleavage result in series [1] and in series [2] was “comparable to that catalyzed by the corresponding wild-type proteins” in each case.

B7: GST-OTU4c-C136S (protein)
chain: MMICYSPITTCSRNAISIKRHLGSRLYGVVAHGSSKFSCYSLLSGLSRRHYTGFRVSVSNRPSSWHDKGLFGFAYTGVIVSLLVCYSSTSQSAYADSSRDKDANNVHHHSSDGKFHNGKRVYTDYSIIGIPGDGRSLFRSVAHGFCLRSGKLAPGEKMQRELADELRTRVADEFIQRRQETEWFVEGDFDTYVRQIRDPHVWGGEPELFMASHVLQMPITVYMKDDKAGGLISIAEYGQEYGKDDPIRVLYHGFGHYDALLLHESKASIPKSKL
For the protein B7, the cleavage activity entry in series [1] and in series [2] was “completely abolished” each time. Moreover, the “linear UB polymer cleavage activity” value in series [3], in series [4] and in series [5] was “generally abolished” each time. Besides, the “fusion protein cleavage activity” value with HA3-RUB-GST, Q9SHE7 is on record as “generally abolished”; in series [6] it was “generally abolished”.

B8: OTU9-NΔ1-172 (protein)
chain: AHVPKINGELPSEDEQISDHERLFQRLQLYGLVENKIEGDGNCQFRSLSDQLYRSPEHHNFVREQVVNQLAYNREIYEGYVPMAYNDYLKAMKRNGEWGDHVTLQAAADLFGVRMFVITSFKDTCYIEILPHFQKSNRLICLSFWAEVHYNSIYPEGELPIPEGKKKKKYWVF
Turning to B8, the cleavage entry in series [1] and in series [2] was “comparable to that catalyzed by the corresponding wild-type proteins” in each case.

B9: OTU10-NΔ1-125 (protein)
chain: EWIGNDNDQDGRSDDSVNVFSCSSPSDTDEYVYSWESDQCDADGEFGRRLNQMVPIPYIPKINGEIPPEEEAVSDHERLRNRLEMFDFTEVKVPGDGNCQFRALADQLYKTADRHKHVRRQIVKQLKSRPDSYQGYVPMDFSDYLRKMSRSGEWGDHVTLQAAADAYRVKIVVLTSFKDTCYIEILPTSQESKGVIFLSFWAEVHYNAIYLNRDTSETELQRKRKWWRFGN
Consider B9, for which the cleavage entry in series [1] and in series [2] was “comparable to that catalyzed by the corresponding wild-type proteins” in each case.
